Literature values, collected in PMC9794804.

Assays:
IL-6R = IL-6R (UniProt P08887)
TLR4 = TLR4 (UniProt O00206)
TREM-1 = TREM-1 (UniProt Q9NP99)
Chain of TREM-1 (Q9NP99 21-205): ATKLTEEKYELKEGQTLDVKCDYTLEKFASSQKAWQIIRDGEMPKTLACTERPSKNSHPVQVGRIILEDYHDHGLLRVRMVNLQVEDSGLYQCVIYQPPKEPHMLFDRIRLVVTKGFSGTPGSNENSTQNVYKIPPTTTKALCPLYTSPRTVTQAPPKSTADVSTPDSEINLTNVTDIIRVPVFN

Chain of eCIRP (Q14011 whole entry): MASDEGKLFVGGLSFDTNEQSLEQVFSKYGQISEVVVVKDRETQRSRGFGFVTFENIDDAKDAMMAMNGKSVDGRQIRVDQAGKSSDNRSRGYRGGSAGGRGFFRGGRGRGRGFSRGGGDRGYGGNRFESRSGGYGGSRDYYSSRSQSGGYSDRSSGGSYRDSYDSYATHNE
Chain of TLR4 (O00206 24-631): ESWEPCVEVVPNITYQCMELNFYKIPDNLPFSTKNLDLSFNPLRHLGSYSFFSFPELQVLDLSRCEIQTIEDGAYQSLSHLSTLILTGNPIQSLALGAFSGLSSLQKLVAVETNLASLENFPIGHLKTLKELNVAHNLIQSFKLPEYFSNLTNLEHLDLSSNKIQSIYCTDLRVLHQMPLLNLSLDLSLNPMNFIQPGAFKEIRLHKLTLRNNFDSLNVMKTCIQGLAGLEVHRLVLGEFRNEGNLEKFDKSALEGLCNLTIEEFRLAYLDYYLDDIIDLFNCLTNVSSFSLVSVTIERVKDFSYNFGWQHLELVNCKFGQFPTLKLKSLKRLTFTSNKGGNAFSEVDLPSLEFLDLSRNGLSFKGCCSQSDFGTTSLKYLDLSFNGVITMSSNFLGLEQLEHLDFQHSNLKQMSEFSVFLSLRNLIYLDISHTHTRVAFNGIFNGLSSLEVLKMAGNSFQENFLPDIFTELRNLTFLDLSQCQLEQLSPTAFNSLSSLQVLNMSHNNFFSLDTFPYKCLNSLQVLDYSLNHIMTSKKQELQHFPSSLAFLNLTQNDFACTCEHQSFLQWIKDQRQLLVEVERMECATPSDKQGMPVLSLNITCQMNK
Chain of IL-6R (P08887 20-365): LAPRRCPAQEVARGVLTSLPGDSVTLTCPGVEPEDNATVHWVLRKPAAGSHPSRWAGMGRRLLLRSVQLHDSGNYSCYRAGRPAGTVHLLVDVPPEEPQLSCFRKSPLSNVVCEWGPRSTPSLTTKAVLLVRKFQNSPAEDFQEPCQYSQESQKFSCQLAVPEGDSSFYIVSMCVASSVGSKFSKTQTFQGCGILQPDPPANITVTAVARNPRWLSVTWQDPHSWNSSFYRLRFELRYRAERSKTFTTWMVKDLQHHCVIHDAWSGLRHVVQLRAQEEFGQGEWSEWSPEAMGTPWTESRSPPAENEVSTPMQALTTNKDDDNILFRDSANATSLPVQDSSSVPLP

Kd (IL-6R): 98 nM
Kd (TLR4): 617 nM
Kd (TREM-1): 117 nM
Substance: eCIRP (from UniProt Q14011)
